From patent US20100136710A1

Target: 3′-end processing factors
Assay: immunoprecipitation under standard salt conditions

percent of the 3′-end processing factors associated: < 1%
Substance: human tRNA splicing endonuclease
